Paper PMC3904923

Experiments:
[1] = molecular target: Kv7.2 helix B (hB residues S450–S590) (human); experiment: other fluorescence titration; competition: 12.5 nM D-CaM mixed with helix A (46.4 nM) or helix B (20.1 nM), isolated lobe added incrementally; no Ca2+; one site Hill fit, Kd derived assuming 1:1 binding
[2] = molecular target: Kv7.2 helix B (hB residues S450–S590) (human); experiment: other fluorescence titration; competition: 12.5 nM D-CaM mixed with helix A (65.6 nM) or helix B (42.6 nM), isolated lobe added incrementally; with Ca2+; one site Hill fit, Kd derived assuming 1:1 binding
[3] = molecular target: dansylated calmodulin (rat) (UniProt P0DP30); experiment: other fluorescence titration; 12.5 nM D-CaM, ligand added incrementally, enhancement of dansyl emission; D-CaM binding buffer with 3.9 µM free Ca2+ (9.63 mM Ca2+, 2 mM Mg2+, 10 mM EGTA, pH 7.4); apparent affinity (EC50 of a Hill fit)
[4] = molecular target: dansylated calmodulin (rat) (UniProt P0DP30); experiment: other fluorescence titration; 12.5 nM D-CaM, ligand added incrementally, enhancement of dansyl emission; 25 mM Tris-HCl, 120 mM KCl, 5 mM NaCl, 2 mM MgCl2, 10 mM EGTA, pH 7.4; no free Ca2+; apparent affinity (EC50 of a Hill fit)

Row | Substance | IC50 [1] [nM] | Kd [1] [nM] | IC50 [2] [nM] | Kd [2] [nM] | EC50 [3] [nM] | EC50 [4] [nM]
1 | CaM N-lobe (residues 1–78) (from UniProt P0DP23 2-79) (domain or fragment) | 130 | 119 | 415 | 414 |  | 
2 | Kv7.2 helix B (hB residues S450–S590) (domain or fragment) |  |  |  |  | 42.6 | 20.1
3 | CaM C-lobe (residues 79–148) (from UniProt P0DP23 80-149) (domain or fragment) | 238 | 231 | 244 | 229 |  | 
4 | Kv7.2 CaM binding domain (residues 310–548), Q2AB WT (domain or fragment) |  |  |  |  | 27.1 | 11
